{
  "source": "the supplement of paper PMC7877785",
  "assay": "self-splicing fitness, log relative to wild type (ln ratio); higher = more splicing; Tetrahymena group I intron in knt gene, E. coli kanamycin selection, DiMSum; sequences stand for … in CUCUCU…GGAGGGAAAAGUUAUCAGGCAUGCACCUGGUAGCUAGUCUUUAAACCAAUAGAUUGCAUCGGUUUAAAAGGCAAGACCGUCAAAUUGCGGGAAAGGGGUCAACAGCCGUUCAGUACCAAGUCUCAGGGGAAACUUUGAGAUGGCCUUGCAAAGGGUAUGGUAAUAAGCUGACGGACAUGGUCCUAACCACGCAGCCAAGUCCUAAGUCAACAGAUCUUCUGUUGAUAUGGAUGCAGUUCACAGACUAAAUGUCGGUCGGGGAAGAUGUAUUCUUCUCAUAAGAUAUAGUCGGACCUCUCCUUAAUGGGAGCUAGCGGAUGAAGUGAUGCAACACUGGAGCCGCUGGGAACUAAUUUGUAUGCGAAAGUAUAUUGAUUAGUUUUGGAGUACUCGUGGUCG",
  "how_it_was_run": "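Pooled colonies went to amplicon sequencing on an Illumina HiSeq 2500 after six replicate transformations. The plates were LB agar with 100 μg/mL carbenicillin, 50 μM IPTG and 0.2% rhamnose, with or without 25 μg/mL kanamycin, incubated overnight at 37°C or 30°C. The E. coli BL21(DE3) library had all eight P1ex-region intron nucleotides randomised, the intron placed in the knt kanamycin-resistance gene on pET-22b(+). DiMSum fitness is the error-weighted combination of replicate fold changes, kanamycin against none, normalised to wild type.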",
  "note": "± gives the uncertainty stated by the source.",
  "data": [
    {"sequence": "GUCCAGCAAUAUUACGAGUA", "values": [
      {"measurement": "self-splicing fitness (ln)", "setting": "30 °C", "result": "-2.36 ± 0.16"},
      {"measurement": "self-splicing fitness (ln)", "setting": "37 °C", "result": "-0.787 ± 0.12"}
    ]},
    {"sequence": "GUCCAGCAAUAUUACGAUAG", "values": [
      {"measurement": "self-splicing fitness (ln)", "setting": "30 °C", "result": "-3.53 ± 0.14"},
      {"measurement": "self-splicing fitness (ln)", "setting": "37 °C", "result": "-2.89 ± 0.17"}
    ]},
    {"sequence": "GUCCAGCAAUAUUACGAUUG", "values": [
      {"measurement": "self-splicing fitness (ln)", "setting": "30 °C", "result": "-3.41 ± 0.17"},
      {"measurement": "self-splicing fitness (ln)", "setting": "37 °C", "result": "-3.17 ± 0.24"}
    ]},
    {"sequence": "GUCCAGCAAUAUUACGCAGU", "values": [
      {"measurement": "self-splicing fitness (ln)", "setting": "30 °C", "result": "-0.463 ± 0.046"},
      {"measurement": "self-splicing fitness (ln)", "setting": "37 °C", "result": "-0.161 ± 0.058"}
    ]},
    {"sequence": "GUCCAGCAAUAUUACGCAUA", "values": [
      {"measurement": "self-splicing fitness (ln)", "setting": "30 °C", "result": "-0.663 ± 0.091"},
      {"measurement": "self-splicing fitness (ln)", "setting": "37 °C", "result": "-0.0806 ± 0.094"}
    ]},
    {"sequence": "GUCCAGCAAUAUUACGGACA", "values": [
      {"measurement": "self-splicing fitness (ln)", "setting": "30 °C", "result": "-2.84 ± 0.26"},
      {"measurement": "self-splicing fitness (ln)", "setting": "37 °C", "result": "-1.67 ± 0.18"}
    ]},
    {"sequence": "GUCCAGCAAUAUUACGGAGU", "values": [
      {"measurement": "self-splicing fitness (ln)", "setting": "30 °C", "result": "-0.181 ± 0.063"},
      {"measurement": "self-splicing fitness (ln)", "setting": "37 °C", "result": "-0.404 ± 0.084"}
    ]},
    {"sequence": "GUCCAGCAAUAUUACGGGUA", "values": [
      {"measurement": "self-splicing fitness (ln)", "setting": "30 °C", "result": "-0.764 ± 0.061"},
      {"measurement": "self-splicing fitness (ln)", "setting": "37 °C", "result": "0.14 ± 0.066"}
    ]},
    {"sequence": "GUCCAGCAAUAUUACGGUGU", "values": [
      {"measurement": "self-splicing fitness (ln)", "setting": "30 °C", "result": "-0.42 ± 0.066"},
      {"measurement": "self-splicing fitness (ln)", "setting": "37 °C", "result": "0.833 ± 0.081"}
    ]},
    {"sequence": "GUCCAGCAAUAUUACGUAAC", "values": [
      {"measurement": "self-splicing fitness (ln)", "setting": "30 °C", "result": "-0.291 ± 0.073"},
      {"measurement": "self-splicing fitness (ln)", "setting": "37 °C", "result": "-0.649 ± 0.095"}
    ]},
    {"sequence": "GUCCAGCAAUAUUACGUAUA", "values": [
      {"measurement": "self-splicing fitness (ln)", "setting": "30 °C", "result": "-1.37 ± 0.073"},
      {"measurement": "self-splicing fitness (ln)", "setting": "37 °C", "result": "-0.787 ± 0.073"}
    ]},
    {"sequence": "GUCCAGCAAUAUUACGUAUU", "values": [
      {"measurement": "self-splicing fitness (ln)", "setting": "30 °C", "result": "-0.819 ± 0.078"},
      {"measurement": "self-splicing fitness (ln)", "setting": "37 °C", "result": "-0.174 ± 0.09"}
    ]},
    {"sequence": "GUCCAGCAAUAUUACGUGUA", "values": [
      {"measurement": "self-splicing fitness (ln)", "setting": "30 °C", "result": "-0.96 ± 0.073"},
      {"measurement": "self-splicing fitness (ln)", "setting": "37 °C", "result": "0.159 ± 0.077"}
    ]},
    {"sequence": "GUCCAGCAAUAUUACGUUCA", "values": [
      {"measurement": "self-splicing fitness (ln)", "setting": "30 °C", "result": "-0.971 ± 0.088"},
      {"measurement": "self-splicing fitness (ln)", "setting": "37 °C", "result": "0.797 ± 0.087"}
    ]},
    {"sequence": "GUCGAGCAAUAUUACGAAGU", "values": [
      {"measurement": "self-splicing fitness (ln)", "setting": "30 °C", "result": "-1.31 ± 0.33"},
      {"measurement": "self-splicing fitness (ln)", "setting": "37 °C", "result": "-1.65 ± 0.4"}
    ]},
    {"sequence": "GUCGAGCAAUAUUACGACGU", "values": [
      {"measurement": "self-splicing fitness (ln)", "setting": "30 °C", "result": "-0.827 ± 0.19"},
      {"measurement": "self-splicing fitness (ln)", "setting": "37 °C", "result": "-0.341 ± 0.16"}
    ]},
    {"sequence": "GUCGAGCAAUAUUACGACUC", "values": [
      {"measurement": "self-splicing fitness (ln)", "setting": "30 °C", "result": "-2.05 ± 0.32"},
      {"measurement": "self-splicing fitness (ln)", "setting": "37 °C", "result": "-1.15 ± 0.36"}
    ]},
    {"sequence": "GUCGAGCAAUAUUACGAGCC", "values": [
      {"measurement": "self-splicing fitness (ln)", "setting": "30 °C", "result": "-3.81 ± 0.47"}
    ]},
    {"sequence": "GUCGAGCAAUAUUACGAUCG", "values": [
      {"measurement": "self-splicing fitness (ln)", "setting": "30 °C", "result": "-3.65 ± 0.23"},
      {"measurement": "self-splicing fitness (ln)", "setting": "37 °C", "result": "-1.38 ± 0.18"}
    ]},
    {"sequence": "GUCGAGCAAUAUUACGAUUA", "values": [
      {"measurement": "self-splicing fitness (ln)", "setting": "30 °C", "result": "0.373 ± 0.19"},
      {"measurement": "self-splicing fitness (ln)", "setting": "37 °C", "result": "-0.944 ± 0.2"}
    ]},
    {"sequence": "GUCGAGCAAUAUUACGCAAC", "values": [
      {"measurement": "self-splicing fitness (ln)", "setting": "30 °C", "result": "-1.92 ± 0.33"},
      {"measurement": "self-splicing fitness (ln)", "setting": "37 °C", "result": "-0.123 ± 0.22"}
    ]},
    {"sequence": "GUCGAGCAAUAUUACGCAGA", "values": [
      {"measurement": "self-splicing fitness (ln)", "setting": "30 °C", "result": "-2.79 ± 0.32"},
      {"measurement": "self-splicing fitness (ln)", "setting": "37 °C", "result": "-1.61 ± 0.39"}
    ]},
    {"sequence": "GUCGAGCAAUAUUACGCAGU", "values": [
      {"measurement": "self-splicing fitness (ln)", "setting": "30 °C", "result": "-2.71 ± 0.17"},
      {"measurement": "self-splicing fitness (ln)", "setting": "37 °C", "result": "-1.17 ± 0.14"}
    ]},
    {"sequence": "GUCGAGCAAUAUUACGCUGU", "values": [
      {"measurement": "self-splicing fitness (ln)", "setting": "30 °C", "result": "-1.73 ± 0.13"},
      {"measurement": "self-splicing fitness (ln)", "setting": "37 °C", "result": "-1.62 ± 0.2"}
    ]},
    {"sequence": "GUCGAGCAAUAUUACGCUUC", "values": [
      {"measurement": "self-splicing fitness (ln)", "setting": "30 °C", "result": "-5.12 ± 0.38"},
      {"measurement": "self-splicing fitness (ln)", "setting": "37 °C", "result": "-4.17 ± 0.33"}
    ]},
    {"sequence": "GUCGAGCAAUAUUACGGCCU", "values": [
      {"measurement": "self-splicing fitness (ln)", "setting": "30 °C", "result": "-2.83 ± 0.34"}
    ]},
    {"sequence": "GUCGAGCAAUAUUACGGCGA", "values": [
      {"measurement": "self-splicing fitness (ln)", "setting": "30 °C", "result": "-3.05 ± 0.21"},
      {"measurement": "self-splicing fitness (ln)", "setting": "37 °C", "result": "-1.9 ± 0.25"}
    ]},
    {"sequence": "GUCGAGCAAUAUUACGGGGU", "values": [
      {"measurement": "self-splicing fitness (ln)", "setting": "30 °C", "result": "-1.92 ± 0.16"},
      {"measurement": "self-splicing fitness (ln)", "setting": "37 °C", "result": "-1.74 ± 0.18"}
    ]},
    {"sequence": "GUCGAGCAAUAUUACGGUAA", "values": [
      {"measurement": "self-splicing fitness (ln)", "setting": "30 °C", "result": "-1.74 ± 0.19"},
      {"measurement": "self-splicing fitness (ln)", "setting": "37 °C", "result": "-2.18 ± 0.19"}
    ]},
    {"sequence": "GUCGAGCAAUAUUACGGUGC", "values": [
      {"measurement": "self-splicing fitness (ln)", "setting": "30 °C", "result": "-2.4 ± 0.16"},
      {"measurement": "self-splicing fitness (ln)", "setting": "37 °C", "result": "-0.222 ± 0.13"}
    ]},
    {"sequence": "GUCGAGCAAUAUUACGUAAC", "values": [
      {"measurement": "self-splicing fitness (ln)", "setting": "30 °C", "result": "-0.996 ± 0.13"},
      {"measurement": "self-splicing fitness (ln)", "setting": "37 °C", "result": "-0.434 ± 0.14"}
    ]},
    {"sequence": "GUCGAGCAAUAUUACGUAAU", "values": [
      {"measurement": "self-splicing fitness (ln)", "setting": "30 °C", "result": "-0.411 ± 0.065"},
      {"measurement": "self-splicing fitness (ln)", "setting": "37 °C", "result": "-0.515 ± 0.09"}
    ]},
    {"sequence": "GUCGAGCAAUAUUACGUAGU", "values": [
      {"measurement": "self-splicing fitness (ln)", "setting": "30 °C", "result": "-2.34 ± 0.12"},
      {"measurement": "self-splicing fitness (ln)", "setting": "37 °C", "result": "-1.47 ± 0.11"}
    ]},
    {"sequence": "GUCGAGCAAUAUUACGUCUU", "values": [
      {"measurement": "self-splicing fitness (ln)", "setting": "30 °C", "result": "-2 ± 0.1"},
      {"measurement": "self-splicing fitness (ln)", "setting": "37 °C", "result": "-1.39 ± 0.09"}
    ]},
    {"sequence": "GUCGAGCAAUAUUACGUGUC", "values": [
      {"measurement": "self-splicing fitness (ln)", "setting": "30 °C", "result": "-2.18 ± 0.08"},
      {"measurement": "self-splicing fitness (ln)", "setting": "37 °C", "result": "-1.6 ± 0.077"}
    ]},
    {"sequence": "GUCGAGCAAUAUUACGUGUU", "values": [
      {"measurement": "self-splicing fitness (ln)", "setting": "30 °C", "result": "-4.22 ± 0.28"},
      {"measurement": "self-splicing fitness (ln)", "setting": "37 °C", "result": "-2.09 ± 0.25"}
    ]},
    {"sequence": "GUCGAGCAAUAUUACGUUCC", "values": [
      {"measurement": "self-splicing fitness (ln)", "setting": "30 °C", "result": "-1.99 ± 0.24"},
      {"measurement": "self-splicing fitness (ln)", "setting": "37 °C", "result": "-0.593 ± 0.37"}
    ]},
    {"sequence": "GUCGAGCAAUAUUACGUUUU", "values": [
      {"measurement": "self-splicing fitness (ln)", "setting": "30 °C", "result": "-3.92 ± 0.32"},
      {"measurement": "self-splicing fitness (ln)", "setting": "37 °C", "result": "-2.07 ± 0.19"}
    ]}
  ]
}
